Laboratory results taken from publication PMC10996005 (2024).
*1 amine or outer side, *2 acyl side, *3 side chain or, on linkers, in order; H or OH if unused. [ ]: non-standard residue; d: D form. Phe(4-OMe) = COc1ccc(C[C@H](N[*:1])C(=O)[*:2])cc1; Phe(4-I) = N[C@@H](Cc1ccc(I)cc1)C(=O)O; 1Nal = N[C@@H](Cc1cccc2ccccc12)C(=O)O; hPhe = N[C@@H](CCc1ccccc1)C(=O)O; 4Pal = N[C@@H](Cc1ccncc1)C(=O)O; Phg = N[C@H](C(=O)O)c1ccccc1

B1: cyclo-CRLII(4-iodo)F (peptide)
chain: cyclo(CRLII[Phe(4-I)])
SMILES: CC[C@H](C)[C@@H]1NC(=O)[C@H](CC(C)C)NC(=O)[C@H](CCCNC(=N)N)NC(=O)[C@H](CS)NC(=O)[C@H](Cc2ccc(I)cc2)NC(=O)[C@H]([C@@H](C)CC)NC1=O
B2: cyclo-CRLII(D-F) (peptide)
chain: cyclo(CRLII[dF])
SMILES: CC[C@H](C)[C@@H]1NC(=O)[C@H](CC(C)C)NC(=O)[C@H](CCCNC(=N)N)NC(=O)[C@H](CS)NC(=O)[C@@H](Cc2ccccc2)NC(=O)[C@H]([C@@H](C)CC)NC1=O
B3: cyclo-CRLII(hF) (peptide)
chain: cyclo(CRLII[hPhe])
SMILES: CC[C@H](C)[C@@H]1NC(=O)[C@H](CC(C)C)NC(=O)[C@H](CCCNC(=N)N)NC(=O)[C@H](CS)NC(=O)[C@H](CCc2ccccc2)NC(=O)[C@H]([C@@H](C)CC)NC1=O
B4: cyclo-CRLII(4-Pal) (peptide)
chain: cyclo(CRLII[4Pal])
SMILES: CC[C@H](C)[C@@H]1NC(=O)[C@H](CC(C)C)NC(=O)[C@H](CCCNC(=N)N)NC(=O)[C@H](CS)NC(=O)[C@H](Cc2ccncc2)NC(=O)[C@H]([C@@H](C)CC)NC1=O
B5: cyclo-CRLII(1-Nal) (peptide)
chain: cyclo(CRLII[1Nal])
SMILES: CC[C@H](C)[C@@H]1NC(=O)[C@H](CC(C)C)NC(=O)[C@H](CCCNC(=N)N)NC(=O)[C@H](CS)NC(=O)[C@H](Cc2cccc3ccccc23)NC(=O)[C@H]([C@@H](C)CC)NC1=O
B6: cyclo-CRLII(Phg) (peptide)
chain: cyclo(CRLII[Phg])
SMILES: CC[C@H](C)[C@@H]1NC(=O)[C@H](CC(C)C)NC(=O)[C@H](CCCNC(=N)N)NC(=O)[C@H](CS)NC(=O)[C@H](c2ccccc2)NC(=O)[C@H]([C@@H](C)CC)NC1=O
B7: cyclo-CRLII(4-iodo)F (peptide)
chain: cyclo(CRLII[Phe(4-I)])
SMILES: CC[C@H](C)[C@@H]1NC(=O)[C@H](CC(C)C)NC(=O)[C@H](CCCNC(=N)N)NC(=O)[C@H](CS)NC(=O)[C@H](Cc2ccc(I)cc2)NC(=O)[C@H]([C@@H](C)CC)NC1=O

molecular target: T1, HIF-1α PAS-B (Homo sapiens, UniProt Q16665); assay: FP
T1 sequence (Q16665 238-349): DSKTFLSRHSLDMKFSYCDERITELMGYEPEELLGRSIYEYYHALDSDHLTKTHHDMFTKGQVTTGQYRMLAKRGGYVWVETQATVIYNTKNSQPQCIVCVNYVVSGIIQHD

For cyclo(CRLIIF) (also: Cy5-labeled HIF-1α), the Kd was 4.6 µM.

molecular target: HIF-2α PAS-B (Homo sapiens, UniProt Q99814); assay: MST
Target sequence in this assay (Q99814 240-350): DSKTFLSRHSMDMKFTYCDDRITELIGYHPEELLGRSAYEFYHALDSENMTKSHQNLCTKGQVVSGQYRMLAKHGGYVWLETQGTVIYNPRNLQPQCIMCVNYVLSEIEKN

CKLIIF (head-to-tail cyclic peptide) [cyclo-CKLIIF] and B1 are within 1.5-fold of each other in Kd: 2.2 µM for the first, 1.7 µM for the second.

Compared with CRVIIF (head-to-tail cyclic peptide) [cyclo-CRVIIF], CRLLIF (head-to-tail cyclic peptide) [cyclo-CRLLIF] is 12-fold lower in Kd: 123 µM for the first, 10.2 µM for the second. The second binds more tightly here.

molecular target: T1, HIF-1α PAS-B; assay: MST

Going from B2 to B3, the Kd falls from 6.2 µM to 1.2 µM (5.2-fold).

Going from CKLIIF (head-to-tail cyclic peptide) [cyclo-CKLIIF] to B1, the Kd falls from 2.6 µM to 0.821 µM (3.2-fold). The second binds more tightly here.

First: B4
Second: CKLLIF (head-to-tail cyclic peptide) [cyclo-CKLLIF]
The Kd of the first is 3.3-fold higher: 39.6 µM for the first, 12 µM for the second.

B5 and cyclo(CRLII[Phe(4-Bz)]) [cyclo-CRLII(4-Bz)F] are within 1.5-fold of each other in Kd: 1.7 µM for the first, 1.6 µM for the second.

Going from CRLIIF (head-to-tail cyclic peptide) to cyclo(CRLII[Phe(4-OMe)]) [cyclo-CRLII(4-OMe)F], the Kd rises from 3.8 µM to 11.2 µM (2.9-fold). The first binds more tightly here.

Compared with CRVIIF (head-to-tail cyclic peptide) [cyclo-CRVIIF], CRLLIF (head-to-tail cyclic peptide) [cyclo-CRLLIF] is 4.5-fold lower in Kd: 65 µM for the first, 14.5 µM for the second. The second binds more tightly here.

Work on B6 yielded a Kd of 5.8 µM.

molecular target: HIF-2α PAS-B (Homo sapiens, UniProt Q99814); assay: MST; remark: another data set of the same source
Target sequence in this assay (Q99814 240-350 G323E): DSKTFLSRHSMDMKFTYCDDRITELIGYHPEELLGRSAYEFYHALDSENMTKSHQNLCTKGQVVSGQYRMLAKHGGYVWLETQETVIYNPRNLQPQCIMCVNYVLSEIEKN

Binder B7 has a Kd of 7.2 µM.
